{
  "source": "paper PMC8152475",
  "about": "(Biomedicines, 2021)",
  "molecules": {"B1": {"name": "MPT64: secretory immunodominant antigen of MTB, located in the RD2 region (protein)", "chain": "APKTYCEELKGTDTGQACQIQMSDPAYNINISLPSYYPDQKSLENYIAQTRDKFLSAATSSTPREAPYELNITSATYQSAIPPRGTQAVVLKVYQNAGGTHPTTTYKAFDWDQAYRKPITYDTLWQADTDPLPVVFPIVQGELSKQTGQQVSIAPNAGLDPVNYQNFAVTNDGVIFFFNPGELLPEAAGPTQVLVPRSAIDSMLA"}},
  "key": {"HK2": {"tested_on": "HK2", "assay_type": "binding"}, "TBK1": {"molecular_target": "T1, TBK1 (Homo sapiens, UniProt Q9UHD2)", "T1 sequence (Q9UHD2 1-729)": "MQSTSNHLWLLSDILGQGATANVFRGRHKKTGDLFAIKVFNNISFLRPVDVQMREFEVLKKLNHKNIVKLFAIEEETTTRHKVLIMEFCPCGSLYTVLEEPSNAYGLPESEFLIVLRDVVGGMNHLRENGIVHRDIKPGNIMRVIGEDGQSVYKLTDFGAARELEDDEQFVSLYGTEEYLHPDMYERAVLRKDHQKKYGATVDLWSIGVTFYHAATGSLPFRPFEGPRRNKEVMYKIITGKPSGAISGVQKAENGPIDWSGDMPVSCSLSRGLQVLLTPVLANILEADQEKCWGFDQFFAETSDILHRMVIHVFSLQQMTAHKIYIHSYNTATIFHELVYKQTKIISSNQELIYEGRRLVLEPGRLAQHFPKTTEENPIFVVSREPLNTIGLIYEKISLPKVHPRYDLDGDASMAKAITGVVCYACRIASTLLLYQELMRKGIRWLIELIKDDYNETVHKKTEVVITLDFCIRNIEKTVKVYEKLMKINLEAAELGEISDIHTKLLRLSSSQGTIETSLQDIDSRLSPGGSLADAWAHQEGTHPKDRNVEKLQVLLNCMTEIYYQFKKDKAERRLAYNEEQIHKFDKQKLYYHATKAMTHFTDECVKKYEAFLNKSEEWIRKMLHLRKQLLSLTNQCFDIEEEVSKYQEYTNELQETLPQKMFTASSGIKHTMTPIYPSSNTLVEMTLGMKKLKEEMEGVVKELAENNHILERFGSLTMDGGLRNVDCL", "assay_type": "binding"}, "[1]": {"tested_on": "apoptosis and inflammation", "settings": "ref [10],[11]; cited from earlier work"}, "[2]": {"tested_on": "Caspase 3, FasL, Fas, and Bax in epithelioid cells and multinucleated giant cells", "settings": "ref [45]; cited from earlier work"}, "[3]": {"tested_on": "murine macrophages and patients with TB", "settings": "ref [10],[11]; cited from earlier work"}},
  "data": [
    {"molecule": "B1", "values": [
      {"measurement": "domain of HK2 required for binding", "setting": "HK2", "result": "HK2 domain in HK2 were found to be essential for their interaction with MPT64"},
      {"measurement": "region of MPT64 binding HK2", "setting": "HK2", "result": "The C-terminal of MPT64 was associated with HK2 and its essential peptides were located between 187–193"},
      {"measurement": "region of MPT protein binding TBK1", "setting": "TBK1", "result": "The N-terminal domain of MPT64 interacted with TBK1, and the core peptide sequences for binding were 24–28 and 34–38 peptides"},
      {"measurement": "apoptosis, TGF-β expression and inflammation", "setting": "[1]", "result": "reduced apoptosis by increasing the expression of TGF-β and reducing inflammation"},
      {"measurement": "relation to expression of apoptotic factors", "setting": "[2]", "result": "related to the expression of apoptotic factors, such as Caspase 3, FasL, Fas, and Bax"},
      {"measurement": "production of IFN-γ", "setting": "[3]", "result": "induced the production of IFN-γ in murine macrophages and patients with TB"}
    ]}
  ]
}
